{"source": "patent US6767887", "proteins": {"B1": {"name": "dipeptidyl peptidase IV (protein)", "chain": "MKTPWKVLLGLLGAAALVTIITVPVVLLNKGTDDATADSRKTYTLTDYLKNTYRLKLYSLRWISDHEYLYKQENNILVFNAEYGNSSVFLENSTFDEFGHSINDYSISPDGQFILLEYNYVKQWRHSYTASYDIYDLNKRQLITEERIPNNTQWVTWSPVGHKLAYVWNNDIYVKIEPNLPSYRITWTGKEDIIYNGITDWVYEEEVFSAYSALWWSPNGTFLAYAQFNDTEVPLIEYSFYSDESLQYPKTVRVPYPKAGAVNPTVKFFVVNTDSLSSVTNATSIQITAPASMLIGDHYLCDVTWATQERISLQWLRRIQNYSVMDICDYDESSGRWNCLVARQHIEMSTTGWVGRFRPSEPHFTLDGNSFYKIISNEEGYRHICYFQIDKKDCTFITKGTWEVIGIEALTSDYLYYISNEYKGMPGGRNLYKIQLSDYTKVTCLSCELNPERCQYYSVSFSKEAKYYQLRCSGPGLPLYTLHSSVNDKGLRVLEDNSALDKMLQNVQMPSKKLDFIILNETKFWYQMILPPHFDKSKKYPLLLDVYAGPCSQKADTVFRLNWATYLASTENIIVASFDGRGSGYQGDKIMHAINRRLGTFEVEDQIEAARQFSKMGFVDNKRIAIWGWSYGGYVTSMVLGSGSGVFKCGIAVAPVSRWEYYDSVYTERYMGLPTPEDNLDHYRNSTVMSRAENFKQVEYLLIHGTADDNVHFQQSAQISKALVDVGVDFQAMWYTDEDHGIASSTAHQHIYTHMSHFIKQCFSLP"}}, "key": {"[1]": {"target": "T1, [Ala^2,Nle^14,Arg^30]-Ex-3-(1-30)-NH2", "T1 chain": "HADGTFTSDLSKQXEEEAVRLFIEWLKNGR"}, "GLP-1-(7-36)-NH2, P01275": {"target": "T2, GLP-1-(7-36)-NH2, P01275", "T2 chain": "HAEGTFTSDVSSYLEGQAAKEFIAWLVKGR"}}, "data": [{"protein": "B1", "values": [{"measurement": "Substrate for DDP-IV", "setting": "[1]", "value": "no proteolysis"}, {"measurement": "Substrate for DDP-IV", "setting": "GLP-1-(7-36)-NH2, P01275", "value": 50, "unit": "% proteolysis"}]}]}
